Measurements from patent publication US20180044383A1 (ALBERT EINSTEIN COLLEGE OF MEDICINE, published 2018).
Where a chain is given by its changes, count along the chain named.

Columns and labels:
[1] = target: FKBP fused to miRFP-GAF709 (UniProt P62942); test: cell-based or functional assay
[2] = target: FKBP fused to miRFP-GAF670 (UniProt P62942); test: cell-based or functional assay
miRFP-GAF709 = target: T1, miRFP-GAF709; test: bimolecular fluorescence complementation in HeLa cells (fragments as FRB and FKBP fusions, rapamycin-induced)
T1 construct: Split fragment; in the experiments it stood as a fusion (to FKBP or PCP); also called GAF fragment of miSplit709
T1 chain: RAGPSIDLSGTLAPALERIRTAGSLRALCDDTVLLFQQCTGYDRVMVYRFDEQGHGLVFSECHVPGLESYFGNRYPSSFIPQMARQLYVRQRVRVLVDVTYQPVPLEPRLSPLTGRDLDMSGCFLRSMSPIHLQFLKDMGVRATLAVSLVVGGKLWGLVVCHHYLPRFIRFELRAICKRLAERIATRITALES
Procedure: (§1) The two mSplits share the same miRFP-PAS fragment that can interact with either miRFP-GAF670 or miRFP-GAF709 fragments producing the fluorescence signal corresponding to complemented miSplit670 or miSplit709, respectively. (b, c) Brightness and complementation contrast of miSplit670 (b) and miSplit709 (c) in live HeLa cells. HeLa cells were transiently transfected with the plasmids encoding the indicated proteins. Rapamycin (Rapa) was added where indicated. The mean fluorescence intensities of cells were analyzed by flow cytometry. Error bars, s.d. (n=3; transfection experiments). (d) Two-color imaging of two alternative PPIs in one cell. […] MCP and PCP are fused with two fragments of mi Split reporter. mRNA serves as a scaffold to bring two split fragments together and reconstitute fluorescence. […] The mean fluorescence intensities of cells were analyzed by flow cytometry. […] (g) Representative images of live HeLa cells analyzed in (f). […]
(§2) We first characterized miSplits using a rapamycin-induced PPI of FRB and FKBP proteins. We fused FRB to the miRFP-PAS domain and FKBP to either miRFP-GAF670 or miRFP-GAF709 domains and tested their effective brightness and BiFC contrast (the ratio between a stimulus-induced fluorescence signal and a fluorescence signal originated from non-specific complementation) in mammalian cells.

miRFP-GAF670 = target: T2, miRFP-GAF670; test: as above
T2 construct: Split fragment; in the experiments it stood as a fusion (to FKBP or PCP); also called GAF fragment of miSplit670
T2 chain: T1 chain with F79T, I80V, I131C
Procedure: as §1, §2

[3] = target: the molecule itself; test: size exclusion chromatography, self-association (no dimer)
From the text: As a result, we have obtained miRFP670 (excitation/emission at 642 nm/670 nm) having Cys in the GAF domain and its dimmer version miRFP670v1 (Table 1). By changing Cys back to Ile and mutating residues 201 and 202, we found two red-shifted variants, miRFP703 (excitation/emission at 673 nm/703 nm) and miRFP709 (excitation/emission at 686 nm/709 nm) (Table 1). […] Absorbance of miRFPs was characterized by small side peaks at 280 nm (protein absorbance) and 390 nm (so called Soret band common to all tetrapyrrole compounds) and by large main peaks at 644 nm, 676 nm and 685 nm, indicative of the efficient BV incorporation. Monomeric states of miRFPs was confirmed by a size exclusion chromatography at 1 mg/ml as well as at concentrations as high as 30 mg/ml (FIG. 1d).
To perform size exclusion liquid chromatography a 2 ml volume of purified miRFPs was applied on the HiLoad 16/600 Superdex 200 column (GE Healthcare) equilibrated with 10 mM Hepes buffer pH 7.4 containing 50 μM EDTA, 10% glycerol, 150 mM NaCl, 1 mM DTT, 0.2 mM PMSF, 0.01% EP-40 and 0.2 mM […]. A 1 ml/min flow rate was used. The column was calibrated using the gel filtration standards (Bio-Rad Laboratories).

[4] = target: the molecule itself; test: sedimentation velocity analytical ultracentrifugation in PBS at 20 C, self-association (no dimer)
Procedure: FIG. 11A-11B. Monomeric state of miRFPs confirmed by analytical ultracentrifugation analysis. miRFPs from each family of miRFPs were analyzed by sedimentation velocity analytical ultracentrifugation. miRFP670 represents miRFP proteins derived from RpBphP1; miRFP670-2 represents monomerized iRFP670 and iRFP702 derived from RpBphP6; miRFP720 represents monomerized iRFP682, iRFP713, and iRFP720 derived from RpBphP2. The proteins were analyzed at concentrations of 15 μM in PBS buffer at 20° C., the time-derivative method was used. (a) Overlay of the sedimentation coefficient distributions for iRFP670-2 (blue), iRFP713 (red), miRFP720 (magenta), and miRFP670 (cyan). (b) Overlay of the normalized best-fit sedimentation coefficient distributions. (c) The residuals corresponding to the resolved fits shown in (b).
Analytical ultracentrifugation was conducted at 20° C. and 58,000 r.p.m. with anOptima XL-I centrifuge (Beckman Coulter) using the AN-60Ti rotor and the absorption optics set to 645 nm. Sednterp v.20120828beta software was used to calculate the partial specific volume of the proteins from their sequence and the density and viscosity of the buffers. The sedimentation parameters were corrected to standard conditions (20,w) using these values. […]

“FRB fused to miRFP-PAS (from UniProt P42345 2021-2113)” gave a BiFC contrast 0.5 h after rapamycin addition [1] of 2 fold, a BiFC contrast (the ratio between a stimulus-induced fluorescence signal and a fluorescence signal originated from non-specific complementation), miSplit709, HeLa cells, flow cytometry, 50 nM rapamycin [1] of over 20 fold and an effective brightness of the complemented miSplit709 relative to parental full-length miRFP [1] of over 40%. It also gave a BiFC contrast 0.5 h after rapamycin addition [2] of 2 fold, a BiFC contrast (the ratio between a stimulus-induced fluorescence signal and a fluorescence signal originated from non-specific complementation), miSplit670, HeLa cells, flow cytometry, 50 nM rapamycin [2] of over 20 fold and an effective brightness of the complemented miSplit670 relative to parental full-length miRFP [2] of over 40%.

B1: miRFP-PAS (other)
chain: MVAGHASGSPAFGTASHSNCEHEEIHLAGSIQPHGALLVVSEHDHRVIQASANAAEFLNLGSVLGVPLAEIDGDLLIKILPHLDPTAEGMPVAVRCRIGNPSTEYCGLMHRPPEGGLIIELERAGP
notes: Split fragment; in the experiments it stood as a fusion (to FRB or to MCP); also called miRFP670-PAS domain; PAS fragment of miSplit670 and miSplit709
B1: binds (miRFP-GAF709); binds (miRFP-GAF670).

B2: miRFP670 (other)
chain: MVAGHASGSPAFGTASHSNCEHEEIHLAGSIQPHGALLVVSEHDHRVIQASANAAEFLNLGSVLGVPLAEIDGDLLIKILPHLDPTAEGMPVAVRCRIGNPSTEYCGLMHRPPEGGLIIELERAGPSIDLSGTLAPALERIRTAGSLRALCDDTVLLFQQCTGYDRVMVYRFDEQGHGLVFSECHVPGLESYFGNRYPSSTVPQMARQLYVRQRVRVLVDVTYQPVPLEPRLSPLTGRDLDMSGCFLRSMSPCHLQFLKDMGVRATLAVSLVVGGKLWGLVVCHHYLPRFIRFELRAICKRLAERIATRITALES
modifications: biliverdin (BV) chromophore; filing says miRFP670 has the BV-binding Cys in the GAF domain (-PIH- motif Ile replaced by Cys)
notes: Monomeric near-infrared fluorescent protein engineered from the PAS-GAF domains of RpBphP1; also called mRFP670
B2: no binding (tested: 30 mg/ml) [3].

B3: miRFP703 (other)
chain: B2 chain with T201L, C253I
modifications: biliverdin (BV) chromophore bound to the conserved Cys residue in the PAS domain
notes: Engineered from RpBphP1 PAS-GAF
B3: no binding (tested: 30 mg/ml) [3].

B4: miRFP709 (other)
chain: B2 chain with T201F, V202I, C253I
modifications: biliverdin (BV) chromophore bound to the conserved Cys residue in the PAS domain
notes: as for B3
B4: no binding (tested: 30 mg/ml) [3].

B5: miRFP670-2 (other)
chain: MARKVDLTSCDREPIHIPGSIQPCGCLLACDAQAVRITRITENAGAFFGRETPRVGELLADYFGETEAHALRNALAQSSDPKRPALIFGWRDGLTGRTFDISLHRHDGTSIIEFEPAAAEQADNPLRLTRQIIARTKELKSLEEMAARVPRYLQAMLGYHRVMLYRFADDGSGMVIGEAKRSDLESFLGQHFPASLVPQQARLLYLKNAIRVVSDSRGISSRIVPEHDASGAALDLSFAHLRSISPCHLEFLRNMGVSASMSLSIIIDGTLWGLIICHHYEPRAVPMAQRVAAKRFAERLSTHFTAAHHQR
modifications: biliverdin (BV) chromophore
notes: Monomerized version of dimeric iRFP670 (derived from RpBphP6); also called monomerized iRFP670
B5: no binding (tested: 15 µM) [4].

B6: miRFP720 (other)
chain: MAEGSVARQPDLLTCDDEPIHIPGAIQPHGLLLALAADMTIVAGSDNLPELTGLAIGALIGRSAADVFDSETHNRLTIALAEPGAAVGAPITVGFTMRKDAGFIGSWHRHDQLIFLELEPPQRDVAEPQAFFRRTNSAIRRLQAAETLESACAAAAQEVRKITGFDRVMIYRFASDFSGSVIAEDRCAEVESKLGLHYPASFIPAQARRLYTINPVRIIPDINYRPVPVTPDLNPVTGRPIDLSFAILRSVSPNHLEFMRNIGMHGTMSISILRGERLWGLIVCHHRTPYYVDLDGRQACKRVAERLATQIGVMEE
modifications: biliverdin (BV) chromophore
notes: Monomerized version of dimeric iRFP720 (derived from RpBphP2); also called monomerized iRFP720
B6: no binding (tested: 15 µM) [4].
